The assay addresses immobilized trimeric proteins. In words: SPR; reverse set-up: JR-FL gp120 (900 RU), JR-FL FD gp145 (1400 RU), SF162 FD gp145 (900 RU) or Soc-V1V2JR-FL amine-coupled to CM5 chips; Siglec-1 injected in 10 mM HEPES, 150 mM NaCl pH 7.4, 30 µl/min; some runs with 50 nM Siglec-1 and lactose, 6'-sialyllactose or sialic acid.

“Siglec-1 (recombinant protein used for SPR) (from UniProt Q9BZZ2 20-1709) (receptor)” displayed a fold less affinity than trimeric proteins on immobilized Siglec-1 of 10 to 20 fold.
